The values below are quoted from earlier work in paper PMC3024536.

In general, Kd refers to the concentration at which binding is half-saturated.

The data set has as its target CD8αα (Mus musculus) (UniProt P01731).
Chain of UniProt P01731 (P01731 28-196): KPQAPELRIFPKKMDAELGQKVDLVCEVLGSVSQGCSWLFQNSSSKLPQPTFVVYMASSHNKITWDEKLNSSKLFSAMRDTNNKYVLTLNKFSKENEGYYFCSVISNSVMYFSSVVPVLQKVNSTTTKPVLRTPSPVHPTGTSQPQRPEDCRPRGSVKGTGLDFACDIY

Take “thymus leukaemia antigen (TL) (from UniProt P14432)”: the Kd is 12 µM.
